From the supplement of paper PMC9112550, “Optimization of the antimicrobial peptide Bac7 by deep mutational scanning” (BMC Biology, 2022) come the findings set out here.

The data set deals with Escherichia coli TOP10. The data set can be described thus: shrunken log2 fold change of peptide-encoding DNA abundance (4.5 h post-induction vs induction); higher = less antimicrobial activity (less host growth inhibition). The following applies: time post-induction: 4.5 h; library: site-saturation at positions 5, 18, 19, 20.
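Also: peptides expressed intracellularly from a pBAD plasmid library in pooled LB shake-flask culture, induced with 0.3% L-arabinose, DNA abundance read by NGS, three biological replicates, DESeq2 with apeglm shrinkage.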

Regarding RRIRNRPPRLPRPRPRPEDVPRP, the “shrunken log2 fold change” value is -0.0153.

Regarding RRIRMRPPRLPRPRPRPKMCPRP, the “shrunken log2 fold change” value turned out to be 0.0261.

Consider RRIRRRPPRLPRPRPRPHAHPRP, for which the “shrunken log2 fold change” value is -0.00194.

Take RRIRRRPPRLPRPRPRPHGSPRP: the “shrunken log2 fold change” value is -0.0609.

Turning to RRIRNRPPRLPRPRPRPDIWPRP, the “shrunken log2 fold change” value is -0.394.

On to RRIRWRPPRLPRPRPRPGFNPRP, for which the “shrunken log2 fold change” value amounted to 0.00388.

Take RRIRWRPPRLPRPRPRPQWVPRP: the “shrunken log2 fold change” value amounted to 0.0902.

As to RRIRLRPPRLPRPRPRPRTLPRP, the “shrunken log2 fold change” value is -0.166.

For RRIRLRPPRLPRPRPRPDPFPRP, the “shrunken log2 fold change” value was -0.228.

For RRIRQRPPRLPRPRPRPSASPRP, the “shrunken log2 fold change” value amounted to 0.0788.

Regarding RRIRTRPPRLPRPRPRPVQSPRP, the “shrunken log2 fold change” value is -0.00991.

RRIRARPPRLPRPRPRPLETPRP: the “shrunken log2 fold change” value amounted to 0.9.

Consider RRIRFRPPRLPRPRPRPVFGPRP, for which the “shrunken log2 fold change” value was -0.17.

Turning to RRIRVRPPRLPRPRPRPTTCPRP, the “shrunken log2 fold change” value was -0.0091.

Regarding RRIRGRPPRLPRPRPRPNPQPRP, the “shrunken log2 fold change” value worked out at 0.0794.

For RRIRRRPPRLPRPRPRPCLDPRP, the “shrunken log2 fold change” value was -0.167.

As to RRIRQRPPRLPRPRPRPQFCPRP, the “shrunken log2 fold change” value is -0.142.

For the sequence RRIRDRPPRLPRPRPRPDSKPRP, the “shrunken log2 fold change” value amounted to 0.0365.

Regarding RRIRWRPPRLPRPRPRPMYQPRP, the “shrunken log2 fold change” value was -0.0254.

For RRIRYRPPRLPRPRPRPEKDPRP, the “shrunken log2 fold change” value is 0.0236.

Regarding RRIRARPPRLPRPRPRPPIRPRP, the “shrunken log2 fold change” value is -0.131.

Take RRIRQRPPRLPRPRPRPNQLPRP: the “shrunken log2 fold change” value was -0.499.

As to RRIRFRPPRLPRPRPRPQAGPRP, the “shrunken log2 fold change” value was -0.0266.

Consider RRIRLRPPRLPRPRPRPLTYPRP, for which the “shrunken log2 fold change” value was -0.448.

Turning to RRIRDRPPRLPRPRPRPQACPRP, the “shrunken log2 fold change” value turned out to be 0.303.

As for RRIRTRPPRLPRPRPRPVAYPRP, the “shrunken log2 fold change” value is -0.502.

Turning to RRIRFRPPRLPRPRPRPFKKPRP, the “shrunken log2 fold change” value was -0.119.

Regarding RRIRLRPPRLPRPRPRPEAFPRP, the “shrunken log2 fold change” value came to 0.0443.

With RRIRHRPPRLPRPRPRPDRNPRP, the “shrunken log2 fold change” value was -0.0482.

With RRIRIRPPRLPRPRPRPFQHPRP, the “shrunken log2 fold change” value is -0.214.

Regarding RRIRQRPPRLPRPRPRPMYRPRP, the “shrunken log2 fold change” value amounted to 0.0341.

As to RRIRFRPPRLPRPRPRPQRQPRP, the “shrunken log2 fold change” value was -0.064.

On to RRIRWRPPRLPRPRPRPPCWPRP, for which the “shrunken log2 fold change” value amounted to 0.347.

As to RRIRIRPPRLPRPRPRPFYGPRP, the “shrunken log2 fold change” value amounted to 0.0259.

On to RRIRSRPPRLPRPRPRPISFPRP, for which the “shrunken log2 fold change” value is -0.216.

As to RRIRRRPPRLPRPRPRPKRLPRP, the “shrunken log2 fold change” value was determined as 0.191.

For the sequence RRIRQRPPRLPRPRPRPQPNPRP, the “shrunken log2 fold change” value was found to be 0.26.

As to RRIRQRPPRLPRPRPRPNNVPRP, the “shrunken log2 fold change” value was -0.149.

Turning to RRIRPRPPRLPRPRPRPICAPRP, the “shrunken log2 fold change” value came to 0.0637.

Regarding RRIRARPPRLPRPRPRPPARPRP, the “shrunken log2 fold change” value stood at 0.874.

As for RRIRMRPPRLPRPRPRPIHDPRP, the “shrunken log2 fold change” value amounted to 0.0367.

Turning to RRIRSRPPRLPRPRPRPINKPRP, the “shrunken log2 fold change” value was -0.641.

For RRIRARPPRLPRPRPRPYQFPRP, the “shrunken log2 fold change” value is -0.34.

Regarding RRIRGRPPRLPRPRPRPGGSPRP, the “shrunken log2 fold change” value stood at 0.92.

As to RRIRCRPPRLPRPRPRPWKIPRP, the “shrunken log2 fold change” value is -0.268.

On to RRIRYRPPRLPRPRPRPLVAPRP, for which the “shrunken log2 fold change” value was -0.274.

As to RRIRKRPPRLPRPRPRPRAVPRP, the “shrunken log2 fold change” value is 0.849.

In the case of RRIRGRPPRLPRPRPRPMDSPRP, the “shrunken log2 fold change” value stood at 0.318.

Turning to RRIRERPPRLPRPRPRPGRWPRP, the “shrunken log2 fold change” value stood at 0.796.

For the sequence RRIRVRPPRLPRPRPRPFQSPRP, the “shrunken log2 fold change” value was -0.00568.

With RRIRHRPPRLPRPRPRPAWWPRP, the “shrunken log2 fold change” value was determined as 0.157.

On to RRIRARPPRLPRPRPRPVQTPRP, for which the “shrunken log2 fold change” value was 0.264.

As for RRIRRRPPRLPRPRPRPMRNPRP, the “shrunken log2 fold change” value came to 0.959.

Take RRIRARPPRLPRPRPRPNQYPRP: the “shrunken log2 fold change” value was -0.801.

For RRIRLRPPRLPRPRPRPVQMPRP, the “shrunken log2 fold change” value was determined as 3.

RRIRERPPRLPRPRPRPKYRPRP: the “shrunken log2 fold change” value was -0.00726.

As for RRIRMRPPRLPRPRPRPRSTPRP, the “shrunken log2 fold change” value is 0.888.

With RRIRNRPPRLPRPRPRPLGQPRP, the “shrunken log2 fold change” value came out at 0.0394.

In the case of RRIRPRPPRLPRPRPRPHHNPRP, the “shrunken log2 fold change” value was -0.859.

Take RRIRLRPPRLPRPRPRPTCRPRP: the “shrunken log2 fold change” value is 0.187.

Regarding RRIRHRPPRLPRPRPRPCKHPRP, the “shrunken log2 fold change” value was -1.38.

With RRIRNRPPRLPRPRPRPVDDPRP, the “shrunken log2 fold change” value was determined as 0.0318.

RRIRTRPPRLPRPRPRPPMNPRP: the “shrunken log2 fold change” value is -0.399.

Turning to RRIRLRPPRLPRPRPRPHAKPRP, the “shrunken log2 fold change” value was -0.0928.

As for RRIRMRPPRLPRPRPRPMPDPRP, the “shrunken log2 fold change” value worked out at 0.716.

RRIRIRPPRLPRPRPRPRVMPRP: the “shrunken log2 fold change” value was determined as 0.0377.

Consider RRIRERPPRLPRPRPRPLYIPRP, for which the “shrunken log2 fold change” value is -0.668.

As to RRIRIRPPRLPRPRPRPNVSPRP, the “shrunken log2 fold change” value was -0.052.

For the sequence RRIRMRPPRLPRPRPRPINNPRP, the “shrunken log2 fold change” value is -0.347.

RRIRCRPPRLPRPRPRPNRFPRP: the “shrunken log2 fold change” value is 2.96.

Consider RRIRERPPRLPRPRPRPAFEPRP, for which the “shrunken log2 fold change” value is -0.0208.

For the sequence RRIRGRPPRLPRPRPRPWHDPRP, the “shrunken log2 fold change” value is -0.178.

As for RRIRIRPPRLPRPRPRPYIKPRP, the “shrunken log2 fold change” value was -0.684.

In the case of RRIRIRPPRLPRPRPRPDPRPRP, the “shrunken log2 fold change” value was found to be 0.132.

Take RRIRCRPPRLPRPRPRPMRKPRP: the “shrunken log2 fold change” value was 0.249.

With RRIRQRPPRLPRPRPRPNPWPRP, the “shrunken log2 fold change” value was determined as 0.0932.

Take RRIRDRPPRLPRPRPRPWQYPRP: the “shrunken log2 fold change” value is -0.482.

In the case of RRIRRRPPRLPRPRPRPFCVPRP, the “shrunken log2 fold change” value worked out at 1.05.

RRIRYRPPRLPRPRPRPFGEPRP: the “shrunken log2 fold change” value is -0.00973.

Turning to RRIRNRPPRLPRPRPRPLTLPRP, the “shrunken log2 fold change” value was -0.358.

With RRIRERPPRLPRPRPRPWWDPRP, the “shrunken log2 fold change” value is -0.0282.

As for RRIRQRPPRLPRPRPRPMIIPRP, the “shrunken log2 fold change” value was determined as 0.0698.

As for RRIRQRPPRLPRPRPRPNFLPRP, the “shrunken log2 fold change” value was -0.492.

As to RRIRWRPPRLPRPRPRPTVYPRP, the “shrunken log2 fold change” value came to 0.116.

As for RRIRRRPPRLPRPRPRPAWIPRP, the “shrunken log2 fold change” value was 0.358.

Take RRIRNRPPRLPRPRPRPSCSPRP: the “shrunken log2 fold change” value is -0.384.

In the case of RRIRDRPPRLPRPRPRPYKWPRP, the “shrunken log2 fold change” value was -0.595.

Regarding RRIRARPPRLPRPRPRPDENPRP, the “shrunken log2 fold change” value came out at 1.2.

As to RRIRNRPPRLPRPRPRPSIIPRP, the “shrunken log2 fold change” value is -0.856.

For RRIRIRPPRLPRPRPRPLFCPRP, the “shrunken log2 fold change” value is -0.517.

Take RRIRYRPPRLPRPRPRPTQVPRP: the “shrunken log2 fold change” value worked out at 0.188.

As to RRIRMRPPRLPRPRPRPRCKPRP, the “shrunken log2 fold change” value worked out at 0.198.

Regarding RRIRTRPPRLPRPRPRPQWIPRP, the “shrunken log2 fold change” value is -0.809.

On to RRIRIRPPRLPRPRPRPYSQPRP, for which the “shrunken log2 fold change” value was -0.269.

As for RRIRERPPRLPRPRPRPRYMPRP, the “shrunken log2 fold change” value is -0.785.

RRIRARPPRLPRPRPRPKHTPRP: the “shrunken log2 fold change” value is 0.264.

Consider RRIRYRPPRLPRPRPRPARDPRP, for which the “shrunken log2 fold change” value turned out to be 0.197.

For RRIRDRPPRLPRPRPRPRLWPRP, the “shrunken log2 fold change” value was 0.842.

Take RRIRWRPPRLPRPRPRPNCCPRP: the “shrunken log2 fold change” value was -0.16.

RRIRMRPPRLPRPRPRPMRLPRP: the “shrunken log2 fold change” value is 0.416.

Consider RRIRERPPRLPRPRPRPCQCPRP, for which the “shrunken log2 fold change” value is -0.0543.

As to RRIRFRPPRLPRPRPRPKTGPRP, the “shrunken log2 fold change” value is 0.072.

As for RRIRGRPPRLPRPRPRPYWGPRP, the “shrunken log2 fold change” value is 0.198.

Consider RRIRCRPPRLPRPRPRPPRGPRP, for which the “shrunken log2 fold change” value came to 0.67.

As to RRIRLRPPRLPRPRPRPNLPPRP, the “shrunken log2 fold change” value was -0.508.

As to RRIRQRPPRLPRPRPRPKQSPRP, the “shrunken log2 fold change” value was -0.0143.

Turning to RRIRDRPPRLPRPRPRPDYMPRP, the “shrunken log2 fold change” value was 0.0916.

RRIRIRPPRLPRPRPRPYYHPRP: the “shrunken log2 fold change” value was -0.839.

Turning to RRIRIRPPRLPRPRPRPMGWPRP, the “shrunken log2 fold change” value came to 0.237.

Turning to RRIRCRPPRLPRPRPRPMKWPRP, the “shrunken log2 fold change” value came out at 0.0655.

Take RRIRHRPPRLPRPRPRPPMVPRP: the “shrunken log2 fold change” value is 0.0642.

As for RRIRCRPPRLPRPRPRPCDNPRP, the “shrunken log2 fold change” value was -0.0831.

For the sequence RRIRQRPPRLPRPRPRPQITPRP, the “shrunken log2 fold change” value is -0.337.

Take RRIRSRPPRLPRPRPRPSMFPRP: the “shrunken log2 fold change” value is -0.18.

Consider RRIRRRPPRLPRPRPRPTDGPRP, for which the “shrunken log2 fold change” value came out at 0.0329.

As for RRIRIRPPRLPRPRPRPCPAPRP, the “shrunken log2 fold change” value is -0.247.

In the case of RRIRRRPPRLPRPRPRPYFSPRP, the “shrunken log2 fold change” value was -0.122.

On to RRIRHRPPRLPRPRPRPWSEPRP, for which the “shrunken log2 fold change” value was determined as 0.00408.

Consider RRIRCRPPRLPRPRPRPHQDPRP, for which the “shrunken log2 fold change” value is -0.365.

With RRIRKRPPRLPRPRPRPCNDPRP, the “shrunken log2 fold change” value was -0.0241.

RRIRKRPPRLPRPRPRPGDHPRP: the “shrunken log2 fold change” value came to 0.014.

Take RRIRARPPRLPRPRPRPLNTPRP: the “shrunken log2 fold change” value was -0.169.

Take RRIRSRPPRLPRPRPRPEPWPRP: the “shrunken log2 fold change” value is 0.548.

Turning to RRIRDRPPRLPRPRPRPWCQPRP, the “shrunken log2 fold change” value is -0.0971.

On to RRIRSRPPRLPRPRPRPECQPRP, for which the “shrunken log2 fold change” value is -0.00188.
